Data taken from patent USRE38202.

Tests used:
[1] = target: intact human Factor IX (human) (UniProt P00740); assay: cell-based or functional assay
[2] = target: Factor IXα (human) (UniProt P00740); assay: ELISA affinity determination (Kim et al.)
[3] = target: intact human Factor IX (human) (UniProt P00740); assay: ELISA affinity determination (Kim et al.)
[4] = target: Factor II (UniProt P00734); assay: affinity chromatography on CLB-FIX D4-Sepharose; 73 ml
[5] = target: Factor X (UniProt P00742); assay: as above
[6] = target: Factor II (UniProt P00734); assay: affinity chromatography on CLB-FIX D4-Sepharose; 440 ml
[7] = target: Factor X (UniProt P00742); assay: as above
[8] = target: Factor IXaβ (human) (UniProt P00740); assay: CLB-FIX D4 affinity chromatography, Factor IXα mixture applied
[9] = target: intact human Factor IX (human) (UniProt P00740); assay: as above
[10] = target: intact human Factor IX (human) (UniProt P00740); assay: CLB-FIX D4 affinity chromatography, purified Factor IX applied
[11] = target: Factor IXaβ (human) (UniProt P00740); assay: CLB-FIX D4 affinity chromatography, Factor IXaβ mixture applied
[12] = target: intact human Factor IX (human) (UniProt P00740); assay: as above
[13] = target: intact human Factor IX (human) (UniProt P00740); assay: affinity chromatography on CLB-FIX D4-Sepharose, clotting activity; 73 ml
[14] = target: intact human Factor IX (human) (UniProt P00740); assay: affinity chromatography on CLB-FIX D4-Sepharose, clotting activity; 440 ml
[15] = target: intact human Factor IX (human) (UniProt P00740); assay: affinity chromatography of prothrombin complex concentrate, elution with 2 M KSCN

Sequence of UniProt P00742 (P00742 41-488 limits assumed): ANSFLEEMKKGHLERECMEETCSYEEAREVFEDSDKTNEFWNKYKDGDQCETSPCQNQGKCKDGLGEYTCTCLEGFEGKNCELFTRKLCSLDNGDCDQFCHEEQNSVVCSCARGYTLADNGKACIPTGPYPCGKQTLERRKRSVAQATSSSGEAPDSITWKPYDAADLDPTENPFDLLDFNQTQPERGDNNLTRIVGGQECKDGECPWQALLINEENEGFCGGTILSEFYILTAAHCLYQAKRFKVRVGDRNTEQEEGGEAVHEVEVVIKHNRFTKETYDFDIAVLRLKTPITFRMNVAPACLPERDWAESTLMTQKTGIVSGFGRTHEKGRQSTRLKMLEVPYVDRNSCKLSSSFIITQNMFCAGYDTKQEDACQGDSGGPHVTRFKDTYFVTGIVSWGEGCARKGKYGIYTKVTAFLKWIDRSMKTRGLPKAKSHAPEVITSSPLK

Work on monoclonal antibody CLB-FIX D4 yielded a Factor IX clotting activity (one stage coagulation assay), residual activity after incubation with antibody [1] greater than 90%, a Kd [2] of 0.3 nM and a fold alteration of affinity (Factor IXα against intact Factor IX) [2] greater than 4 fold. For the same substance, the Kd [3] was 1.2 nM, the FII in eluate (U/ml) [4] was less than 0.008 U/ml and the FX in eluate (U/ml) [5] was less than 0.003 U/ml. The FII in flow through (U/ml) [6] was 49.7 U/ml, the FX in flow through (U/ml) [7] was 51 U/ml and the FIXaβ eluted [8] was less than 0.001 µg. For the same substance, the FIXaβ unbound [8] was 7 µg, the Intact FIX eluted [9] was 85 µg and the Intact FIX eluted [10] was 588 µg. It also gave an Intact FIX unbound [10] of 23 µg, a Protein eluted [10] of 580 µg and a Protein unbound [10] of 20 µg. For the same substance, the FIXaβ eluted [11] was less than 0.001 µg, the FIXaβ unbound [11] was 550 µg and the Intact FIX eluted [12] was 50 µg. For the same substance, the FIX in eluate (U/ml) [13] was 98.7 U/ml, the FIX in flow through (U/ml) [14] was 10.4 U/ml and the Factor IX activity recovered in the eluate [15] was 67%.
